Source: US20180177842A1 (CANIMGUIDE THERAPEUTICS, published 2018)
Ends that are not written are not given here.

Biological target: T1, P3028 (VFDEFKPLVEEPQNLIK, SEQ ID NO: 185), His-tagged (human)
T1 construct: Synthetic fragment of human serum albumin (positions 397-413); used in solution as His-tagged peptide PGE73; also called PGE73; not shown: His-tag
T1 peptide: VFDEFKPLVEEPQNLIK
Assay: PEPSCAN ELISA; peptide on chip, His-P3028 added;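 note: peroxidase color development with ABTS and H2O2 substrate, OD405 imaged by CCD camera with image processing and taken as raw values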

Row | Binder | RAMPO Score
1 | KKQDTFFVKLSLFTER [KKQDTFFVKLSLFTER (SEQ ID NO: 293)] | 473 rampo units
2 | KLLDTFFVKLSLFTER [KLLDTFFVKLSLFTER (SEQ ID NO: 454)] | 343 rampo units
3 | KQLDTFFVKLSLFTER [KQLDTFFVKLSLFTER (SEQ ID NO: 440)] | 350 rampo units
4 | LKLDTFFVKLSLFTER [LKLDTFFVKLSLFTER (SEQ ID NO: 274)] | 449 rampo units
5 | KSLDTFFVKLSLFTER (also called 30684) [KSLDTFFVKLSLFTER (SEQ ID NO: 510)] | 281 rampo units
6 | KKLDTFFKKLSLFTER (also called SCF 27; SCF27) [P27 (KKLDTFFKKLSLFTER, SEQ ID NO: 264)] | 253 rampo units
7 | KKSDTFFVKLSLFTER [KKSDTFFVKLSLFTER (SEQ ID NO: 295)] | 393 rampo units
8 | QKLDTFFVKLSLFTER [QKLDTFFVKLSLFTER (SEQ ID NO: 278)] | 455 rampo units
9 | KKTDTFFVKLSLFTER [KKTDTFFVKLSLFTER (SEQ ID NO: 296)] | 451 rampo units
10 | KMLDTFFVKLSLFTER [KMLDTFFVKLSLFTER (SEQ ID NO: 417)] | 400 rampo units
11 | KKVDTFFVKLSLFTER [KKVDTFFVKLSLFTER (SEQ ID NO: 297)] | 377 rampo units
12 | KKYDTFFVKLSLFTER [KKYDTFFVKLSLFTER (SEQ ID NO: 452)] | 344 rampo units
13 | NKLDTFFVKLSLFTER [NKLDTFFVKLSLFTER (SEQ ID NO: 276)] | 445 rampo units
14 | VKLDTFFVKLSLFTER [VKLDTFFVKLSLFTER (SEQ ID NO: 281)] | 442 rampo units
15 | TKLDTFFVKLSLFTER [TKLDTFFVKLSLFTER (SEQ ID NO: 280)] | 493 rampo units
16 | KPLDTFFVKLSLFTER [KPLDTFFVKLSLFTER (SEQ ID NO: 405)] | 425 rampo units
17 | KKWDTFFVKLSLFTER [KKWDTFFVKLSLFTER (SEQ ID NO: 458)] | 341 rampo units
18 | KRLDTFFVKLSLFTER [KRLDTFFVKLSLFTER (SEQ ID NO: 407)] | 417 rampo units
19 | WKLDTFFVKLSLFTER [WKLDTFFVKLSLFTER (SEQ ID NO: 507)] | 284 rampo units
20 | KTLDTFFVKLSLFTER [KTLDTFFVKLSLFTER (SEQ ID NO: 468)] | 331 rampo units
21 | RKLDTFFVKLSLFTER [RKLDTFFVKLSLFTER (SEQ ID NO: 279)] | 523 rampo units
22 | KKRDTFFVKLSLFTER [KKRDTFFVKLSLFTER (SEQ ID NO: 294)] | 370 rampo units
23 | PKLDTFFVKLSLFTER [PKLDTFFVKLSLFTER (SEQ ID NO: 277)] | 387 rampo units
24 | MKLDTFFVKLSLFTER [MKLDTFFVKLSLFTER (SEQ ID NO: 275)] | 457 rampo units
25 | KYLDTFFVKLSLFTER [KYLDTFFVKLSLFTER (SEQ ID NO: 494)] | 301 rampo units
26 | KVLDTFFVKLSLFTER [KVLDTFFVKLSLFTER (SEQ ID NO: 481)] | 317 rampo units
27 | KNLDTFFVKLSLFTER [KNLDTFFVKLSLFTER (SEQ ID NO: 402)] | 432 rampo units
28 | KWLDTFFVKLSLFTER [KWLDTFFVKLSLFTER (SEQ ID NO: 490)] | 304 rampo units
29 | YKLDTFFVKLSLFTER [YKLDTFFVKLSLFTER (SEQ ID NO: 483)] | 315 rampo units
30 | SKLDTFFVKLSLFTER [SKLDTFFVKLSLFTER (SEQ ID NO: 453)] | 344 rampo units

Biological target: T2, His-tagged P3028 (human, also: His tag, length and end not given here)
T2 construct: in solution at 0.5 ug/mL, detected with mouse anti-His antibody and rabbit anti-mouse peroxidase (rampo); also called PGE73; His-tag-P3028; not shown: His tag
T2 peptide: VFDEFKPLVEEPQNLIK
Assay: PEPSCAN ELISA, peptide on chip;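 note: binding detected by peroxidase ELISA with ABTS, OD405 colour imaged by CCD camera before and after staining, raw OD405 reported as rampo units, air-bubble wells scored 0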

Row | Binder | RAMPO Score
31 | AKLDTFFVKLSLFTER [SEQ ID NO 268] | 466 rampo units
32 | VKLDTFFVKLSLFTER [SEQ ID NO 281] | 442 rampo units
33 | LKLDTFFVKLSLFTER [SEQ ID NO 274] | 449 rampo units
34 | HKLDTFFVKLSLFTER [SEQ ID NO 272] | 428 rampo units
35 | QKLDTFFVKLSLFTER [SEQ ID NO 278] | 455 rampo units
36 | TKLDTFFVKLSLFTER [SEQ ID NO 280] | 493 rampo units
37 | MKLDTFFVKLSLFTER [SEQ ID NO 275] | 457 rampo units
38 | GKLDTFFVKLSLFTER [SEQ ID NO 271] | 367 rampo units
39 | DKLDTFFVKLSLFTER [SEQ ID NO 269] | 373 rampo units
40 | NKLDTFFVKLSLFTER [SEQ ID NO 276] | 445 rampo units
41 | IKLDTFFVKLSLFTER [SEQ ID NO 273] | 483 rampo units
42 | KKADTFFVKLSLFTER [SEQ ID NO 282] | 427 rampo units
43 | KKDDTFFVKLSLFTER [SEQ ID NO 284] | 492 rampo units
44 | PKLDTFFVKLSLFTER [SEQ ID NO 277] | 387 rampo units
45 | RKLDTFFVKLSLFTER [SEQ ID NO 279] | 523 rampo units
46 | KKCDTFFVKLSLFTER [SEQ ID NO 283] | 432 rampo units
47 | EKLDTFFVKLSLFTER [SEQ ID NO 270] | 396 rampo units
